The target in assay [1] is full-length human CD22 fused with flag and Myc tags at the C-terminus, on HEK293 or K562 cells (human) (UniProt P20273). Put plainly: FACS on CD22-expressing cells (HEK293-CD22 by the table's head), anti-hFc Alexa 488.
The target is the same in assay [2]. Kind of assay: ELISA, IgG format; antigen format not described. (In an ELISA, binding on a coated surface is turned into a signal by an enzyme label.)
For assay [3] the target is unchanged. Put plainly: cell-based or functional assay.

From US20220298257A1 come the findings set out here.

Usually EC50 stands for the concentration giving half of the maximal effect. The low end stands for a more potent agent, the high end for a less potent agent.

Sequence of full-length human CD22 fused with flag and Myc tags at the C-terminus, on HEK293 or K562 cells (human) (P20273 20-847): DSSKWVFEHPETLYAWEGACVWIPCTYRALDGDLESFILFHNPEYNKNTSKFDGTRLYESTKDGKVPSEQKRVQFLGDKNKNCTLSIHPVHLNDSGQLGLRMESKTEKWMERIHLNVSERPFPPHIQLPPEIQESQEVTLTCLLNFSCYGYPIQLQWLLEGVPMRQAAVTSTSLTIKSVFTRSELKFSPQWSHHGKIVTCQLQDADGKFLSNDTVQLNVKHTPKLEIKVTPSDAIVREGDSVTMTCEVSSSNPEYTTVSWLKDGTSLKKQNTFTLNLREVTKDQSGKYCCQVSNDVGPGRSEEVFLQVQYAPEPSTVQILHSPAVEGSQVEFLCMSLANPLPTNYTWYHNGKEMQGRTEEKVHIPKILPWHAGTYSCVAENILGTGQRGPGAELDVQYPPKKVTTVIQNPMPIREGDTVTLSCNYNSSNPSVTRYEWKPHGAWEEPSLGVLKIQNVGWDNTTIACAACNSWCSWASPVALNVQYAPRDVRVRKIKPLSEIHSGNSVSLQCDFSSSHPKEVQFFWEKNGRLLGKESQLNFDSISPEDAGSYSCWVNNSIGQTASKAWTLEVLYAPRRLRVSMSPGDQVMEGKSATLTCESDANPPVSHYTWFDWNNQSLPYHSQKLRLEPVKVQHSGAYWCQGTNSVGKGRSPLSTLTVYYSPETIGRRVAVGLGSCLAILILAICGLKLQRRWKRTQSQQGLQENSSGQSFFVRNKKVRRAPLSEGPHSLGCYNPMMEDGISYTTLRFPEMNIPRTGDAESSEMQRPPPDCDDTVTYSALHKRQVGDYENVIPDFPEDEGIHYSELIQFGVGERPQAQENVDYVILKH

Substance BL22 (anti-CD22) (antibody) displayed a 50% effective concentration (EC50) in assay [1] of 0.044 nM. Also, the 50% effective concentration (EC50) in assay [2] is 0.004 nM. In assay [3], this substance yielded an EC50 in ADCC assay (Promega ADCC Bioreporter, CD22/HEK293 target cells) of 3.31 nM and a T½ (Hour) of internalization, CD22/HEK293 cells, pHrodo secondary of 3.95 Hour.
